Assay results reported in publication PMC12416549 (2024).
Where a chain is given by its changes, count along the chain named. Numbers in names are those of the source.

B1: K66T (designed binder)
chain: MTLQELLREEALRRAEAEAFRYALELLAEKFPEQKEYLLDLAEEIESQIRSLSGVDVEDVRKFLDTEWAWVKELLAEHPAELAEVEAARAARLAELRAEVEAKVAA
B2: T2F (designed binder)
chain: B1 chain with T2F, T66K
B3: E9L (designed binder)
chain: B1 chain with E9L, T66K
B4: G54A (designed binder)
chain: B1 chain with G54A, T66K
B5: E18H (designed binder)
chain: B1 chain with E18H, T66K
B6: V55L (designed binder)
chain: B1 chain with V55L, T66K
B7: L6N (designed binder)
chain: B1 chain with L6N, T66K
B8: A105D (designed binder)
chain: B1 chain with T66K, A105D
B9: D59T (designed binder)
chain: B1 chain with D59T, T66K
B10: R8P (designed binder)
chain: B1 chain with R8P, T66K
B11: L38P (designed binder)
chain: B1 chain with L38P, T66K
B12: E81W (designed binder)
chain: B1 chain with T66K, E81W
B13: A28N (designed binder)
chain: B1 chain with A28N, T66K
B14: L3M (designed binder)
chain: B1 chain with L3M, T66K
B15: E101K (designed binder)
chain: B1 chain with T66K, E101K
B16: E36P (designed binder)
chain: B1 chain with E36P, T66K
B17: E36G (designed binder)
chain: B1 chain with E36G, T66K
B18: A87K (designed binder)
chain: B1 chain with T66K, A87K
B19: E36N (designed binder)
chain: B1 chain with E36N, T66K
B20: R8Q (designed binder)
chain: B1 chain with R8Q, T66K
B21: S53I (designed binder)
chain: B1 chain with S53I, T66K
B22: K103F (designed binder)
chain: B1 chain with T66K, K103F
B23: G54P (designed binder)
chain: B1 chain with G54P, T66K
B24: E16P (designed binder)
chain: B1 chain with E16P, T66K
B25: A94Y (designed binder)
chain: B1 chain with T66K, A94Y
B26: T2D (designed binder)
chain: B1 chain with T2D, T66K
B27: H78P (designed binder)
chain: B1 chain with T66K, H78P
B28: A42Q (designed binder)
chain: B1 chain with A42Q, T66K
B29: E67V (designed binder)
chain: B1 chain with T66K, E67V
B30: E25A (designed binder)
chain: B1 chain with E25A, T66K
B31: V60Y (designed binder)
chain: B1 chain with V60Y, T66K
B32: V55Y (designed binder)
chain: B1 chain with V55Y, T66K
B33: S53Y (designed binder)
chain: B1 chain with S53Y, T66K
B34: T2Q (designed binder)
chain: B1 chain with T2Q, T66K
B35: L24F (designed binder)
chain: B1 chain with L24F, T66K
B36: E44A (designed binder)
chain: B1 chain with E44A, T66K
B37: R89N (designed binder)
chain: B1 chain with T66K, R89N
B38: V71I (designed binder)
chain: B1 chain with T66K, V71I
B39: S53H (designed binder)
chain: B1 chain with S53H, T66K
B40: L52A (designed binder)
chain: B1 chain with L52A, T66K
B41: A94V (designed binder)
chain: B1 chain with T66K, A94V
B42: R8C (designed binder)
chain: B1 chain with R8C, T66K
B43: H78S (designed binder)
chain: B1 chain with T66K, H78S
B44: E84F (designed binder)
chain: B1 chain with T66K, E84F
B45: L64G (designed binder)
chain: B1 chain with L64G, T66K
B46: K103W (designed binder)
chain: B1 chain with T66K, K103W
B47: L74P (designed binder)
chain: B1 chain with T66K, L74P
B48: A69E (designed binder)
chain: B1 chain with T66K, A69E
B49: A106Y (designed binder)
chain: B1 chain with T66K, A106Y
B50: V100I (designed binder)
chain: B1 chain with T66K, V100I
B51: R89Q (designed binder)
chain: B1 chain with T66K, R89Q
B52: Q48S (designed binder)
chain: B1 chain with Q48S, T66K
B53: L74D (designed binder)
chain: B1 chain with T66K, L74D
B54: L24P (designed binder)
chain: B1 chain with L24P, T66K
B55: D65A (designed binder)
chain: B1 chain with D65A, T66K
B56: L74C (designed binder)
chain: B1 chain with T66K, L74C
B57: E44N (designed binder)
chain: B1 chain with E44N, T66K
B58: E16Y (designed binder)
chain: B1 chain with E16Y, T66K
B59: W68K (designed binder)
chain: B1 chain with T66K, W68K

Biological target: T1, TNFR1 (Homo sapiens, UniProt P19438)
T1 chain: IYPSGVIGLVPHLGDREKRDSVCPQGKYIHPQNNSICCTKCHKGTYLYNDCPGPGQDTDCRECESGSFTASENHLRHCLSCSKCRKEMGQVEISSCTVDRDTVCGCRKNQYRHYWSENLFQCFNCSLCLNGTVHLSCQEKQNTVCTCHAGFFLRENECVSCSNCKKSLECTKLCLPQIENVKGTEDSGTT
Experiment: yeast display SC50

Row | Binder | apparent Kd (screen) [nM]
1 | B1 | 0.956
2 | B2 | 0.539
3 | B3 | 0.718
4 | B4 | 1.4
5 | B5 | 0.49
6 | B6 | 0.653
7 | B7 | 22.2
8 | B8 | 0.718
9 | B9 | 0.446
10 | B10 | 10.4
11 | B11 | 22.2
12 | B12 | 0.539
13 | B13 | 12.5
14 | B14 | 2.73
15 | B15 | 0.653
16 | B16 | 0.49
17 | B17 | 0.718
18 | B18 | 0.49
19 | B19 | 1.27
20 | B20 | 0.653

Row | Binder | apparent Kd (screen) [nM]
21 | B21 | 2.25
22 | B22 | 0.869
23 | B23 | 12.5
24 | B24 | 9.41
25 | B25 | 0.593
26 | B26 | 1.54
27 | B27 | 1.69
28 | B28 | 2.05
29 | B29 | 20.2
30 | B30 | 0.405
31 | B31 | 0.539
32 | B32 | 0.956
33 | B33 | 6.43
34 | B34 | 1.27
35 | B35 | 0.653
36 | B36 | 7.78
37 | B37 | 1.05
38 | B38 | 0.539
39 | B39 | 0.653
40 | B40 | 0.446

Row | Binder | apparent Kd (screen) [nM]
41 | B41 | 0.539
42 | B42 | 0.593
43 | B43 | 0.79
44 | B44 | 0.593
45 | B45 | 1.69
46 | B46 | 0.718
47 | B47 | 13.8
48 | B48 | 0.956
49 | B49 | 0.79
50 | B50 | 0.653
51 | B51 | 0.593
52 | B52 | 0.593
53 | B53 | 3
54 | B54 | 26.9
55 | B55 | 0.653
56 | B56 | 1.4
57 | B57 | 24.4
58 | B58 | 0.446
59 | B59 | 12.5
